Data published in publication PMC7004846.

Biological target: Aquifex aeolicus VF5 Wzt carbohydrate-binding domain (residues 235-395), long construct (Aquifex aeolicus VF5)
Assay: SEC

stoichiometry N: 2
Substance: Aquifex aeolicus VF5 Wzt carbohydrate-binding domain (residues 235-395), long construct (domain or fragment)
